B1: library; numbered along this chain (parent)
chain: MAAAGGARLLRAASAVLGGPAGRWLHHAGSRAGSSGLLRNRGPGGSAEASRSLSVSARARSSSEDKITVHFINRDGETLTTKGKVGDSLLDVVVENNLDIDGFGACEGTLACSTCHLIFEDHIYEKLDAITDEENDMLDLAYGLTDRSRLGCQICLTKSMDNMTVRVPETVADARQSIDVGKTS

Variants of: B1
Experiment: scaled log2 fold change in cell abundance, elesclomol vs control (0 = silent mean, 1 = nonsense mean) (scaled log2 ratio); higher = higher viability under elesclomol (loss of FDX1 cuproptosis function)
Conditions: glucose 10 mM
Procedure: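 Deep mutational scan of full-length human FDX1: a pooled saturation-mutagenesis ORF library (every residue 2-184 mutated to all 19 amino acids plus stop, and silent codons where available) was expressed by lentivirus in FDX1-knockout ABC1 (14 days) or HEK293T (11 days) cells grown with elesclomol (ES) or DMSO control. Variant abundance came from ORF sequencing. The log2 fold change (ES vs control, mean of duplicates) was centred on the silent-variant mean (0) and scaled to the nonsense-variant mean (1). Higher values mean greater viability under ES, i.e. loss of FDX1 function in cuproptosis.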

[1] = with ABC1 FDX1 KO, elesclomol 5 nM, 14 days
[2] = with HEK293T FDX1 KO, elesclomol 40 nM, 11 days
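Further: variant abundance is its share of total variant reads in each endpoint sample, from next-generation sequencing of the integrated ORF PCR-amplified out of genomic DNA.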

Row | Variant | scaled log2 fold change [1] | scaled log2 fold change [2]
1 | MAAAGGARLLRAASAVLGIPAGRWLHHAGSRAGSSGLLRNRGPGGSAEASRSLSVSARARSSSEDKITVHFINRDGETLTTKGKVGDSLLDVVVENNLDIDGFGACEGTLACSTCHLIFEDHIYEKLDAITDEENDMLDLAYGLTDRSRLGCQICLTKSMDNMTVRVPETVADARQSIDVGKTS [G19I] | 0.0203 | -0.0307
2 | MAAAGGARLLRAASAVLGVPAGRWLHHAGSRAGSSGLLRNRGPGGSAEASRSLSVSARARSSSEDKITVHFINRDGETLTTKGKVGDSLLDVVVENNLDIDGFGACEGTLACSTCHLIFEDHIYEKLDAITDEENDMLDLAYGLTDRSRLGCQICLTKSMDNMTVRVPETVADARQSIDVGKTS [G19V] | -0.0119 | 1.01
3 | MAAAGGARLLRAASAVLGHPAGRWLHHAGSRAGSSGLLRNRGPGGSAEASRSLSVSARARSSSEDKITVHFINRDGETLTTKGKVGDSLLDVVVENNLDIDGFGACEGTLACSTCHLIFEDHIYEKLDAITDEENDMLDLAYGLTDRSRLGCQICLTKSMDNMTVRVPETVADARQSIDVGKTS [G19H] | 0.674 | –
4 | MAAAGGARLLRAASAVLGQPAGRWLHHAGSRAGSSGLLRNRGPGGSAEASRSLSVSARARSSSEDKITVHFINRDGETLTTKGKVGDSLLDVVVENNLDIDGFGACEGTLACSTCHLIFEDHIYEKLDAITDEENDMLDLAYGLTDRSRLGCQICLTKSMDNMTVRVPETVADARQSIDVGKTS [G19Q] | 0.00839 | -0.000362
5 | MAAAGGARLLRAASAVLGLPAGRWLHHAGSRAGSSGLLRNRGPGGSAEASRSLSVSARARSSSEDKITVHFINRDGETLTTKGKVGDSLLDVVVENNLDIDGFGACEGTLACSTCHLIFEDHIYEKLDAITDEENDMLDLAYGLTDRSRLGCQICLTKSMDNMTVRVPETVADARQSIDVGKTS [G19L] | -0.367 | 0.0638
6 | MAAAGGARLLRAASAVLGSPAGRWLHHAGSRAGSSGLLRNRGPGGSAEASRSLSVSARARSSSEDKITVHFINRDGETLTTKGKVGDSLLDVVVENNLDIDGFGACEGTLACSTCHLIFEDHIYEKLDAITDEENDMLDLAYGLTDRSRLGCQICLTKSMDNMTVRVPETVADARQSIDVGKTS [G19S] | 0.267 | 0.0205
7 | MAAAGGARLLRAASAVLGNPAGRWLHHAGSRAGSSGLLRNRGPGGSAEASRSLSVSARARSSSEDKITVHFINRDGETLTTKGKVGDSLLDVVVENNLDIDGFGACEGTLACSTCHLIFEDHIYEKLDAITDEENDMLDLAYGLTDRSRLGCQICLTKSMDNMTVRVPETVADARQSIDVGKTS [G19N] | -0.0111 | 0.0883
8 | MAAAGGARLLRAASAVLGMPAGRWLHHAGSRAGSSGLLRNRGPGGSAEASRSLSVSARARSSSEDKITVHFINRDGETLTTKGKVGDSLLDVVVENNLDIDGFGACEGTLACSTCHLIFEDHIYEKLDAITDEENDMLDLAYGLTDRSRLGCQICLTKSMDNMTVRVPETVADARQSIDVGKTS [G19M] | -0.0059 | -0.191
9 | MAAAGGARLLRAASAVLGPPAGRWLHHAGSRAGSSGLLRNRGPGGSAEASRSLSVSARARSSSEDKITVHFINRDGETLTTKGKVGDSLLDVVVENNLDIDGFGACEGTLACSTCHLIFEDHIYEKLDAITDEENDMLDLAYGLTDRSRLGCQICLTKSMDNMTVRVPETVADARQSIDVGKTS [G19P] | 0.54 | –
10 | MAAAGGARLLRAASAVLGRPAGRWLHHAGSRAGSSGLLRNRGPGGSAEASRSLSVSARARSSSEDKITVHFINRDGETLTTKGKVGDSLLDVVVENNLDIDGFGACEGTLACSTCHLIFEDHIYEKLDAITDEENDMLDLAYGLTDRSRLGCQICLTKSMDNMTVRVPETVADARQSIDVGKTS [G19R] | 0.483 | 1.5
11 | MAAAGGARLLRAASAVLGYPAGRWLHHAGSRAGSSGLLRNRGPGGSAEASRSLSVSARARSSSEDKITVHFINRDGETLTTKGKVGDSLLDVVVENNLDIDGFGACEGTLACSTCHLIFEDHIYEKLDAITDEENDMLDLAYGLTDRSRLGCQICLTKSMDNMTVRVPETVADARQSIDVGKTS [G19Y] | 0.187 | -0.867
12 | MAAAGGARLLRAASAVLGWPAGRWLHHAGSRAGSSGLLRNRGPGGSAEASRSLSVSARARSSSEDKITVHFINRDGETLTTKGKVGDSLLDVVVENNLDIDGFGACEGTLACSTCHLIFEDHIYEKLDAITDEENDMLDLAYGLTDRSRLGCQICLTKSMDNMTVRVPETVADARQSIDVGKTS [G19W] | 0.277 | -0.266
13 | MAAAGGARLLRAASAVLGKPAGRWLHHAGSRAGSSGLLRNRGPGGSAEASRSLSVSARARSSSEDKITVHFINRDGETLTTKGKVGDSLLDVVVENNLDIDGFGACEGTLACSTCHLIFEDHIYEKLDAITDEENDMLDLAYGLTDRSRLGCQICLTKSMDNMTVRVPETVADARQSIDVGKTS [G19K] | -0.0528 | -0.256
14 | MAAAGGARLLRAASAVLGTPAGRWLHHAGSRAGSSGLLRNRGPGGSAEASRSLSVSARARSSSEDKITVHFINRDGETLTTKGKVGDSLLDVVVENNLDIDGFGACEGTLACSTCHLIFEDHIYEKLDAITDEENDMLDLAYGLTDRSRLGCQICLTKSMDNMTVRVPETVADARQSIDVGKTS [G19T] | 0.117 | 0.837
15 | MAAAGGARLLRAASAVLGGEAGRWLHHAGSRAGSSGLLRNRGPGGSAEASRSLSVSARARSSSEDKITVHFINRDGETLTTKGKVGDSLLDVVVENNLDIDGFGACEGTLACSTCHLIFEDHIYEKLDAITDEENDMLDLAYGLTDRSRLGCQICLTKSMDNMTVRVPETVADARQSIDVGKTS [P20E] | 0.162 | 1.08
16 | MAAAGGARLLRAASAVLGGAAGRWLHHAGSRAGSSGLLRNRGPGGSAEASRSLSVSARARSSSEDKITVHFINRDGETLTTKGKVGDSLLDVVVENNLDIDGFGACEGTLACSTCHLIFEDHIYEKLDAITDEENDMLDLAYGLTDRSRLGCQICLTKSMDNMTVRVPETVADARQSIDVGKTS [P20A] | -0.601 | 0.0404
17 | MAAAGGARLLRAASAVLGGCAGRWLHHAGSRAGSSGLLRNRGPGGSAEASRSLSVSARARSSSEDKITVHFINRDGETLTTKGKVGDSLLDVVVENNLDIDGFGACEGTLACSTCHLIFEDHIYEKLDAITDEENDMLDLAYGLTDRSRLGCQICLTKSMDNMTVRVPETVADARQSIDVGKTS [P20C] | 0.163 | -0.287
18 | MAAAGGARLLRAASAVLGGDAGRWLHHAGSRAGSSGLLRNRGPGGSAEASRSLSVSARARSSSEDKITVHFINRDGETLTTKGKVGDSLLDVVVENNLDIDGFGACEGTLACSTCHLIFEDHIYEKLDAITDEENDMLDLAYGLTDRSRLGCQICLTKSMDNMTVRVPETVADARQSIDVGKTS [P20D] | -0.0903 | –

Reference: the supplement of paper PMC12855868
